Among the data in publication doi:10.1101/621219 (bioRxiv, 2019) are Kd and dH values, retold here.

For experiment [1], the target named is T1, FoxA, TonB-dependent ferrioxamine B transporter from Pseudomonas aeruginosa PAO1 (full-length) (Pseudomonas aeruginosa strain PAO1, UniProt Q9I116 1-820).
T1 sequence (looked up): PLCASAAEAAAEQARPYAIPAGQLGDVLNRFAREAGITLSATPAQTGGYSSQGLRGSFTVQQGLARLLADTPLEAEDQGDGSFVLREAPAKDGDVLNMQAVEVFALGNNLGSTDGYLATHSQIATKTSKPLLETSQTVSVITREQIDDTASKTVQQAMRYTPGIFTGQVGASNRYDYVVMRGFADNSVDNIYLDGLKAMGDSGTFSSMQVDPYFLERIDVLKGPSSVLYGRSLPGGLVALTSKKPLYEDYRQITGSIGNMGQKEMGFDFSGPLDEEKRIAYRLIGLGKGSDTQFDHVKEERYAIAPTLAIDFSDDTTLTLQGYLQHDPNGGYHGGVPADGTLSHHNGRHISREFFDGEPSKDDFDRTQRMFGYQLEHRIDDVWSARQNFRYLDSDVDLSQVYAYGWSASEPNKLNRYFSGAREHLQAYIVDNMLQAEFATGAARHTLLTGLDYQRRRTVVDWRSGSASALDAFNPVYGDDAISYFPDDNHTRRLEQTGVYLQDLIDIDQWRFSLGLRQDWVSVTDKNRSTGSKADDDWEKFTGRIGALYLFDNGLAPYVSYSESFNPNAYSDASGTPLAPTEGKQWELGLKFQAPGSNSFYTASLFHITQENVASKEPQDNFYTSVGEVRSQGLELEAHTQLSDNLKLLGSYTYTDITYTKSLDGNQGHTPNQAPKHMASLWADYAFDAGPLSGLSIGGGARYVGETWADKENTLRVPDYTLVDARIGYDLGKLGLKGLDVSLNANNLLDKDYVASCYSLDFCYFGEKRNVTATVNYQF
The experiment can be described thus: ITC.

The target in experiment [2] is T1, FoxA, TonB-dependent ferrioxamine B …. Briefly: ITC. This is another data set of the same source.

Several values for one entry are separate records, joined by “and”; a condition that tells them apart may be missing. Equal values may be shown once. Read-outs that look alike come from different tables or passages of the source.

B1: C-terminal domain of TonB1 from Pseudomonas aeruginosa PAO1 (residues 251-340) (domain or fragment, Pseudomonas aeruginosa strain PAO1, UniProt Q51368 251-340, looked up)
chain: DSDIKPLRMDPPVYPRMAQARGIEGRVKVLFTITSDGRIDDIQVLESVPSRMFDREVRQAMAKWRFEPRVSGGKIVARQATKMFFFKIEK
As for B1, in experiment [1], the dissociation constant (Kd) came to 107 ± 30 nM and the dH is -11 ± 0.3 kcal/mol. Further, in experiment [2], the Kd was 6 nM and 6 to 10 nM; the dH is -19.2 ± 0.4 kcal/mol.
